Test results published in the RNAGym collection of RNA variant scans (doi:10.1093/molbev/msab373).

B1: Azoarcus group I ribozyme (parent)
chain: GUGCCUUGCGCCGGGAAACCACGCAAGGGAUGGUGUCAAAUUCGGCGAAACCUAAGCGCCCGCCCGGGCGUAUGGCAACGCCGAGCCAAGCUUCGGCGCCUGCGCCGAUGAAGGUGUAGAGACUAGACGGCACCCACCUAAGGCAAACGCUAUGGUGAAGGCAUAGUCCAGGGAGUGGCGAAAGUCACACAAACCGG

Variants of: B1
Assay: reverse-splicing fitness (ratio to wild type); higher = more active; in vitro selection; Mg2+ level not given
Procedure, shortened: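 An in vitro group I ribozyme library with randomized positions was T7-transcribed and gel-purified. In triplicate, 10 pmol RNA in EPPS pH 7.5 was reacted with 50 pmoles of a 30-nt RNA substrate for 1 h at 37 °C across several added MgCl2 levels (1–48 mM), then stopped with EDTA. Products were reverse transcribed from a substrate-complementary primer, PCR-amplified and sequenced (HiSeq 4000). Fitness is a variant's read proportion after selection over that before, normalised to wild type.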

| Variant | reverse-splicing fitness |
| --- | --- |
| GUGCCUUGCGCCGGGAAACCACGCAAGGGAUGGUGUCAAAUUCGGCGAAACCUAAGCGCCCGCCCGGGCGUAUGGCAACGCAGAGCCAAGCUUCGGCGCCUGCGCCGAUGCAGGUGUAGCGACUAGACGGCACCCACCUAAGGCCAACGGUAUGGUGAAGGCAUAGUCAAGGGAGUGGCGAAAGUCACACAAACCGG | 0.00854 |
| GUGCCUUGCGCCGGGAAACCACGCAAGGGAUGGUGUCAAAUUCGGCGAAACCUAAGCGCCCGCCCGGGCGUAUGGCAACGCAGAGCCAAGCUUCGGCGCCUGCGCCGAUGCAGGUGUAGCGACUAGACGGCACCCACCUAAGGCCAACGGUAUGGUGAAGGCAUAGUCUAGGGAGUGGCGAAAGUCACACAAACCGG | 0.00879 |
| GUGCCUUGCGCCGGGAAACCACGCAAGGGAUGGUGUCAAAUUCGGCGAAACCUAAGCGCCCGCCCGGGCGUAUGGCAACGCAGAGCCAAGCUUCGGCGCCUGCGCCGAUGCAGGUGUAGCGACUAGACGGCACCCACCUAAGGCCAACGGUAUGGUGAAGGCAUAGUCGAGGGAGUGGCGAAAGUCACACAAACCGG | 0.00631 |
| GUGCCUUGCGCCGGGAAACCACGCAAGGGAUGGUGUCAAAUUCGGCGAAACCUAAGCGCCCGCCCGGGCGUAUGGCAACGCAGAGCCAAGCUUCGGCGCCUGCGCCGAUGCAGGUGUAGCGACUAGACGGCACCCACCUAAGGCCAACGAUAUGGUGAAGGCAUAGUCAAGGGAGUGGCGAAAGUCACACAAACCGG | 0.00755 |
| GUGCCUUGCGCCGGGAAACCACGCAAGGGAUGGUGUCAAAUUCGGCGAAACCUAAGCGCCCGCCCGGGCGUAUGGCAACGCAGAGCCAAGCUUCGGCGCCUGCGCCGAUGCAGGUGUAGCGACUAGACGGCACCCACCUAAGGCCAACGAUAUGGUGAAGGCAUAGUCUAGGGAGUGGCGAAAGUCACACAAACCGG | 0.0105 |
| GUGCCUUGCGCCGGGAAACCACGCAAGGGAUGGUGUCAAAUUCGGCGAAACCUAAGCGCCCGCCCGGGCGUAUGGCAACGCAGAGCCAAGCUUCGGCGCCUGCGCCGAUGCAGGUGUAGCGACUAGACGGCACCCACCUAAGGCCAACGAUAUGGUGAAGGCAUAGUCGAGGGAGUGGCGAAAGUCACACAAACCGG | 0.00813 |
| GUGCCUUGCGCCGGGAAACCACGCAAGGGAUGGUGUCAAAUUCGGCGAAACCUAAGCGCCCGCCCGGGCGUAUGGCAACGCAGAGCCAAGCUUCGGCGCCUGCGCCGAUGCAGGUGUAGCGACUAGACGGCACCCACCUAAGGCAAACGCUAUGGUGAAGGCAUAGUCCAGGGAGUGGCGAAAGUCACACAAACCGG | 0.0246 |
| GUGCCUUGCGCCGGGAAACCACGCAAGGGAUGGUGUCAAAUUCGGCGAAACCUAAGCGCCCGCCCGGGCGUAUGGCAACGCAGAGCCAAGCUUCGGCGCCUGCGCCGAUGCAGGUGUAGCGACUAGACGGCACCCACCUAAGGCCAACGAUAUGGUGAAGGCAUAGUCCAGGGAGUGGCGAAAGUCACACAAACCGG | 0.0107 |
| GUGCCUUGCGCCGGGAAACCACGCAAGGGAUGGUGUCAAAUUCGGCGAAACCUAAGCGCCCGCCCGGGCGUAUGGCAACGCAGAGCCAAGCUUCGGCGCCUGCGCCGAUGCAGGUGUAGCGACUAGACGGCACCCACCUAAGGCCAACGGUAUGGUGAAGGCAUAGUCCAGGGAGUGGCGAAAGUCACACAAACCGG | 0.00873 |
| GUGCCUUGCGCCGGGAAACCACGCAAGGGAUGGUGUCAAAUUCGGCGAAACCUAAGCGCCCGCCCGGGCGUAUGGCAACGCAGAGCCAAGCUUCGGCGCCUGCGCCGAUGCAGGUGUAGCGACUAGACGGCACCCACCUAAGGCCAACGGUAUGGUGAAGGCAUAGUCAAGGGAGCGGCGAAAGUCACACAAACCGG | 0.00798 |
| GUGCCUUGCGCCGGGAAACCACGCAAGGGAUGGUGUCAAAUUCGGCGAAACCUAAGCGCCCGCCCGGGCGUAUGGCAACGCAGAGCCAAGCUUCGGCGCCUGCGCCGAUGCAGGUGUAGCGACUAGACGGCACCCACCUAAGGCCAACGGUAUGGUGAAGGCAUAGUCAAGGGAGGGGCGAAAGUCACACAAACCGG | 0.00767 |
| GUGCCUUGCGCCGGGAAACCACGCAAGGGAUGGUGUCAAAUUCGGCGAAACCUAAGCGCCCGCCCGGGCGUAUGGCAACGCAGAGCCAAGCUUCGGCGCCUGCGCCGAUGCAGGUGUAGCGACUAGACGGCACCCACCUAAGGCCAACGGUAUGGUGAAGGCAUAGUCAAGGGAGAGGCGAAAGUCACACAAACCGG | 0.00949 |
| GUGCCUUGCGCCGGGAAACCACGCAAGGGAUGGUGUCAAAUUCGGCGAAACCUAAGCGCCCGCCCGGGCGUAUGGCAACGCAGAGCCAAGCUUCGGCGCCUGCGCCGAUGCAGGUGUAGAGACUAGACGGCACCCACCUAAGGCAAACGCUAUGGUGAAGGCAUAGUCCAGGGAGUGGCGAAAGUCACACAAACCGG | 0.228 |
| GUGCCUUGCGCCGGGAAACCACGCAAGGGAUGGUGUCAAAUUCGGCGAAACCUAAGCGCCCGCCCGGGCGUAUGGCAACGCAGAGCCAAGCUUCGGCGCCUGCGCCGAUGCAGGUGUAGCGACUAGACGGCACCCACCUAAGGCCAACGAUAUGGUGAAGGCAUAGUCUAGGGAGGGGCGAAAGUCACACAAACCGG | 0.00786 |
| GUGCCUUGCGCCGGGAAACCACGCAAGGGAUGGUGUCAAAUUCGGCGAAACCUAAGCGCCCGCCCGGGCGUAUGGCAACGCAGAGCCAAGCUUCGGCGCCUGCGCCGAUGCAGGUGUAGCGACUAGACGGCACCCACCUAAGGCCAACGAUAUGGUGAAGGCAUAGUCUAGGGAGCGGCGAAAGUCACACAAACCGG | 0.0127 |
| GUGCCUUGCGCCGGGAAACCACGCAAGGGAUGGUGUCAAAUUCGGCGAAACCUAAGCGCCCGCCCGGGCGUAUGGCAACGCAGAGCCAAGCUUCGGCGCCUGCGCCGAUGCAGGUGUAGCGACUAGACGGCACCCACCUAAGGCCAACGAUAUGGUGAAGGCAUAGUCUAGGGAGAGGCGAAAGUCACACAAACCGG | 0.0165 |
| GUGCCUUGCGCCGGGAAACCACGCAAGGGAUGGUGUCAAAUUCGGCGAAACCUAAGCGCCCGCCCGGGCGUAUGGCAACGCAGAGCCAAGCUUCGGCGCCUGCGCCGAUGCAGGUGUAGCGACUAGACGGCACCCACCUAAGGCCAACGAUAUGGUGAAGGCAUAGUCAAGGGAGGGGCGAAAGUCACACAAACCGG | 0.00733 |
| GUGCCUUGCGCCGGGAAACCACGCAAGGGAUGGUGUCAAAUUCGGCGAAACCUAAGCGCCCGCCCGGGCGUAUGGCAACGCAGAGCCAAGCUUCGGCGCCUGCGCCGAUGCAGGUGUAGCGACUAGACGGCACCCACCUAAGGCCAACGAUAUGGUGAAGGCAUAGUCAAGGGAGCGGCGAAAGUCACACAAACCGG | 0.00935 |
| GUGCCUUGCGCCGGGAAACCACGCAAGGGAUGGUGUCAAAUUCGGCGAAACCUAAGCGCCCGCCCGGGCGUAUGGCAACGCAGAGCCAAGCUUCGGCGCCUGCGCCGAUGCAGGUGUAGCGACUAGACGGCACCCACCUAAGGCCAACGAUAUGGUGAAGGCAUAGUCAAGGGAGAGGCGAAAGUCACACAAACCGG | 0.0167 |
| GUGCCUUGCGCCGGGAAACCACGCAAGGGAUGGUGUCAAAUUCGGCGAAACCUAAGCGCCCGCCCGGGCGUAUGGCAACGCAGAGCCAAGCUUCGGCGCCUGCGCCGAUGCAGGUGUAGCGACUAGACGGCACCCACCUAAGGCCAACGAUAUGGUGAAGGCAUAGUCGAGGGAGCGGCGAAAGUCACACAAACCGG | 0.024 |
| GUGCCUUGCGCCGGGAAACCACGCAAGGGAUGGUGUCAAAUUCGGCGAAACCUAAGCGCCCGCCCGGGCGUAUGGCAACGCAGAGCCAAGCUUCGGCGCCUGCGCCGAUGCAGGUGUAGCGACUAGACGGCACCCACCUAAGGCCAACGAUAUGGUGAAGGCAUAGUCGAGGGAGAGGCGAAAGUCACACAAACCGG | 0.0296 |
| GUGCCUUGCGCCGGGAAACCACGCAAGGGAUGGUGUCAAAUUCGGCGAAACCUAAGCGCCCGCCCGGGCGUAUGGCAACGCAGAGCCAAGCUUCGGCGCCUGCGCCGAUGCAGGUGUAGCGACUAGACGGCACCCACCUAAGGCCAACGAUAUGGUGAAGGCAUAGUCGAGGGAGGGGCGAAAGUCACACAAACCGG | 0.00757 |
| GUGCCUUGCGCCGGGAAACCACGCAAGGGAUGGUGUCAAAUUCGGCGAAACCUAAGCGCCCGCCCGGGCGUAUGGCAACGCAGAGCCAAGCUUCGGCGCCUGCGCCGAUGCAGGUGUAGCGACUAGACGGCACCCACCUAAGGCCAACGGUAUGGUGAAGGCAUAGUCGAGGGAGAGGCGAAAGUCACACAAACCGG | 0.00867 |
| GUGCCUUGCGCCGGGAAACCACGCAAGGGAUGGUGUCAAAUUCGGCGAAACCUAAGCGCCCGCCCGGGCGUAUGGCAACGCAGAGCCAAGCUUCGGCGCCUGCGCCGAUGCAGGUGUAGCGACUAGACGGCACCCACCUAAGGCCAACGGUAUGGUGAAGGCAUAGUCGAGGGAGGGGCGAAAGUCACACAAACCGG | 0.00702 |
| GUGCCUUGCGCCGGGAAACCACGCAAGGGAUGGUGUCAAAUUCGGCGAAACCUAAGCGCCCGCCCGGGCGUAUGGCAACGCAGAGCCAAGCUUCGGCGCCUGCGCCGAUGCAGGUGUAGCGACUAGACGGCACCCACCUAAGGCCAACGGUAUGGUGAAGGCAUAGUCGAGGGAGCGGCGAAAGUCACACAAACCGG | 0.0101 |
| GUGCCUUGCGCCGGGAAACCACGCAAGGGAUGGUGUCAAAUUCGGCGAAACCUAAGCGCCCGCCCGGGCGUAUGGCAACGCAGAGCCAAGCUUCGGCGCCUGCGCCGAUGCAGGUGUAGCGACUAGACGGCACCCACCUAAGGCCAACGCUAUGGUGAAGGCAUAGUCCAGGGAGUGGCGAAAGUCACACAAACCGG | 0.0248 |
| GUGCCUUGCGCCGGGAAACCACGCAAGGGAUGGUGUCAAAUUCGGCGAAACCUAAGCGCCCGCCCGGGCGUAUGGCAACGCAGAGCCAAGCUUCGGCGCCUGCGCCGAUGCAGGUGUAGCGACUAGACGGCACCCACCUAAGGCCAACGAUAUGGUGAAGGCAUAGUCCAGGGAGGGGCGAAAGUCACACAAACCGG | 0.00581 |
| GUGCCUUGCGCCGGGAAACCACGCAAGGGAUGGUGUCAAAUUCGGCGAAACCUAAGCGCCCGCCCGGGCGUAUGGCAACGCAGAGCCAAGCUUCGGCGCCUGCGCCGAUGCAGGUGUAGCGACUAGACGGCACCCACCUAAGGCCAACGAUAUGGUGAAGGCAUAGUCCAGGGAGAGGCGAAAGUCACACAAACCGG | 0.0106 |
| GUGCCUUGCGCCGGGAAACCACGCAAGGGAUGGUGUCAAAUUCGGCGAAACCUAAGCGCCCGCCCGGGCGUAUGGCAACGCAGAGCCAAGCUUCGGCGCCUGCGCCGAUGCAGGUGUAGCGACUAGACGGCACCCACCUAAGGCCAACGAUAUGGUGAAGGCAUAGUCCAGGGAGCGGCGAAAGUCACACAAACCGG | 0.011 |
| GUGCCUUGCGCCGGGAAACCACGCAAGGGAUGGUGUCAAAUUCGGCGAAACCUAAGCGCCCGCCCGGGCGUAUGGCAACGCAGAGCCAAGCUUCGGCGCCUGCGCCGAUGAAGGUGUAGAGACUAGACGGCACCCACCUAAGGCAAACGCUAUGGUGAAGGCAUAGUCCAGGGAGUGGCGAAAGUCACACAAACCGG | 0.658 |
